Assays:
[1] = molecular target: Ribosome termination complex (70S ribosomes, fMet-STOP mRNA and fMet-tRNA^fMet) (E. coli); test: stopped-flow fluorescence; as a12, with RF3 preincubated with 1 mM GTP in the chase mixture
[2] = molecular target: Ribosome termination complex (70S ribosomes, fMet-STOP mRNA and fMet-tRNA^fMet) (E. coli); test: stopped-flow fluorescence; Fl-RF1 preincubated with ribosome complex, chased with excess unlabeled RF1, no RF3; Buffer 219 Tris pH 7.6, 26 C; double exponential fit, faster phase
[3] = molecular target: Ribosome termination complex (70S ribosomes, fMet-STOP mRNA and fMet-tRNA^fMet) (E. coli); test: other fluorescence titration; 1 nM fluorescein-labeled A220C RF1 titrated with ribosome complexes (0-52 nM) in 1X 219-HEPES buffer; excitation 491 nm, emission 515 nm; quadratic fit
[4] = molecular target: Ribosome termination complex formed with wild-type RF1 (E. coli) (UniProt P0A7I0); test: quick spin gel-filtration assay (Sephadex G-100) with SYPRO Ruby staining; as a8, RF3 preincubated with 2 mM GDP
[5] = molecular target: Ribosome termination complex formed with GAQ-RF1 (E. coli) (UniProt P0A7I0); test: as above
[6] = molecular target: Ribosome termination complex formed with wild-type RF1 (E. coli) (UniProt P0A7I0); test: quick spin gel-filtration assay (Sephadex G-100) with SYPRO Ruby staining; as a8, no nucleotide added to RF3 (copurified with GDP 1:1; 'apo' assay, no free GDP or GTP)
[7] = molecular target: Ribosome termination complex formed with wild-type RF1 (E. coli) (UniProt P0A7I0); test: quick spin gel-filtration assay (Sephadex G-100) with SYPRO Ruby staining; RF3 preincubated with 2 mM GDPNP, mixed with release complexes (10 nM to 2 uM, threefold excess RF1), 10 min 37 C, Buffer 219 HEPES pH 7.6; quadratic fit; KD with wild-type RF1 complexes is called apparent (K_D,app)
[8] = molecular target: Ribosome termination complex formed with GAQ-RF1 (E. coli) (UniProt P0A7I0); test: as above
[9] = molecular target: Ribosome termination complex (70S ribosomes, fMet-STOP mRNA and fMet-tRNA^fMet) (E. coli); test: stopped-flow fluorescence; with RF3 preincubated with 1 mM GDP in the chase mixture

Sequence of His-tagged RF3 (class 2 release factor) (P0A7I4 whole entry): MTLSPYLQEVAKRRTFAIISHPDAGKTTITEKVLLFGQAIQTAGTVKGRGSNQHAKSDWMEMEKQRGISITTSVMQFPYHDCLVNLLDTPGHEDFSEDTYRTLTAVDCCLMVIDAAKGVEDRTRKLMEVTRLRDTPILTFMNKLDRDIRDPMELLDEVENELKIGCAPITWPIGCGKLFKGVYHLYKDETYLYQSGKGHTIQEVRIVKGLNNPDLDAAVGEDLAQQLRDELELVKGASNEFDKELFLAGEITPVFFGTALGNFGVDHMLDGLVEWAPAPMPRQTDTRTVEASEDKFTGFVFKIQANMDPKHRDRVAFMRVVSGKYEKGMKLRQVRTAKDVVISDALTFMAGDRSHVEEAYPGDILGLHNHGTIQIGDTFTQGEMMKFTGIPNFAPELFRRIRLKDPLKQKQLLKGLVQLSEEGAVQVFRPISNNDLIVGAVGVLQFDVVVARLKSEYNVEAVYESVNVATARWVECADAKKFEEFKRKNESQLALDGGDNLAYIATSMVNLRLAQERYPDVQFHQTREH
Sequence of Ribosome termination complex formed with wild-type RF1 (E. coli) (P0A7I0 whole entry, looked up, one chain of several): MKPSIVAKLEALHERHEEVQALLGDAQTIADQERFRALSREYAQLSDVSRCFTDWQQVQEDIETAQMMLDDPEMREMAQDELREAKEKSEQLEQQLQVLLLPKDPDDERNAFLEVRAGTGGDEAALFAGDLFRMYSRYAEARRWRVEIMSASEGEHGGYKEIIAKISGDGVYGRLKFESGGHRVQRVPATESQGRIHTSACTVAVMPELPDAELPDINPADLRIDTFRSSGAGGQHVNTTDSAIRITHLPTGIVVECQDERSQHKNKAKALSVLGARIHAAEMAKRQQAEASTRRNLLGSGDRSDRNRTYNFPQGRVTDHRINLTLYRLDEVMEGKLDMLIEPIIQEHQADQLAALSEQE
Sequence of Ribosome termination complex formed with GAQ-RF1 (E. coli) (P0A7I0 whole entry, looked up, one chain of several): as above

“Fluorescein-labeled GAQ-RF1 (single-cysteine L82C or A220C) (from UniProt P0A7I0 1-360) (natural protein)” showed a koff in the presence of RF3:GTP [1] of 0.14 s⁻¹ and a koff [2] of 0.09 s⁻¹.
For “Fluorescein-labeled A220C RF1 (from UniProt P0A7I0 1-360) (natural protein)”, the Kd [3] was 2.5 nM.
“His-tagged RF3 (class 2 release factor) (from UniProt P0A7I4 1-529) (natural protein)” was tested, and the Kd [4] was 430 nM, the Kd [5] was 1000 nM and the Kd [6] was 36 nM. It also gave a Kd [7] of 50 nM and a Kd [8] of 10 nM.
Substance “Fluorescein-labeled single-cysteine RF1 (either L82C or A220C) (from UniProt P0A7I0 1-360) (natural protein)” has a koff in the presence of RF3:GTP [1] of 2.9 s⁻¹, a koff [2] of 0.005 s⁻¹ and a koff in the presence of RF3:GDP [9] of 0.3 s⁻¹.
